Measurements: PMC7476095

Legend:
KU80 [1] = target: KU80 (UniProt P13010); assay: anti-FLAG co-IP, KU80 blot; conditions: reference: wild type, IR 6 Gy; sites S214
KU80 [2] = target: KU80 (UniProt P13010); assay: anti-KU80 co-IP, MAD1 blot; conditions: reference: wild type, IR 6 Gy; sites S214

- binding against the reference (KU80 [1]): weaker
- binding against the reference (KU80 [2]): weaker
Substance: MAD1 (mitotic arrest-deficient protein 1) (from UniProt Q9Y6D9) S214A, IR 6 Gy
